Measured values taken from US20180128830A1, “DETECTION OF HUMAN CYTOMEGALOVIRUS IN BREAST CANCER” (priority 2015, published 2018).

What was measured:
MTSS1 [1] = assay: MTSS1 immunofluorescence microscopy; format: cell-based, human; settings: 100 ng/mL, 96 hrs
Procedure: MDA-MB-231 cells were seeded onto FBS-coated glass coverslips at a density of 2.0×10^5 cells/well and cultured for 48 hrs at 37° C. Cells were treated with 100 ng/mL of purified recombinant cmvIL-10 for 96 hrs, then fixed with 2% paraformaldehyde in DPBS for 20 min, washed, permeabilized with 0.2% Triton-X-100 in PBS for 15 min. The cells were washed and blocked with 10% FBS for 1 hr at 37° C., then incubated with anti-MTSS-1 antibody at a 1:100 dilution for 1 hr at 37° C. followed by the addition of goat anti-mouse TRITC secondary antibody at a 1:150 dilution for 30 min (Life Technologies) and Alexa Fluor 488 phalloidin (Molecular Probes, Eugene, Oreg.). Coverslips were washed and excess fluid was removed before inverting the coverslip onto a glass slide containing 20 μL of DAPI-containing Prolong Gold mounting medium (Life Technologies, Grand Island, N.Y.). Images were taken on a Zeiss AX10 Imager.A1 microscope (Carl Zeiss Inc., Oberkochen, Germany) using AxioVision 4.7.2 imaging software.

MTSS1 [2] = assay: MTSS1 immunoblotting; format: cell-based, human; settings: 10 ng/mL, beyond 24 hours
Procedure: Confluent T-75 flasks of MDA-MB-231 cells were treated with 10 ng/mL cmvIL-10 (R&D systems) for the indicated times, then scraped and harvested into cell lysis buffer (150 mM NaCl, 20 mM HEPES, 0.5% Triton-X-100, 1.0 mM NaOV4, 1.0 mM EDTA, 0.1% NaN3) containing 1× protease inhibitors (Calbiochem). Cell lysates were clarified via centrifugation, heated at 70° C. for 10 min in reducing buffer, and the proteins separated on a 4-12% Tris-Base SDS-PAGE gel (Life Technologies, Grand Island, N.Y.). After transfer to nitrocellulose, the membrane was incubated in blocking solution (5% milk+TBS) for 1 hr at room and then probed with primary antibody: 1:1000 dilution for MMP-3 or MTSS-1 antibodies (Santa Cruz), or MAPK antiserum (Cell Signaling Tech, Danvers, Mass.), in blocking solution overnight, oscillating on a platform rocker at 4.0° C. After three washes, the membranes were incubated with a 1:2000 dilution of appropriate AP-conjugated secondary antibody on a platform rocker at room temperature for 1 hr. Protein bands were detected using western blue stabilized AP substrate (Promega, Madison, Wis.). For zymography, cell lysates were denatured in SDS buffer under non-reducing conditions without heat, and run on a 4-16% Zymogram gel using Tris-Glycine SDS running buffer according to manufacturer's instructions. […]

IL-10R = molecular target: T1, IL-10R (Homo sapiens, UniProt Q13651); assay: IL-10R immunofluorescence microscopy; format: cell-based; settings: MDA-MB-231 cells, 100 ng/ml, 15 min
T1 construct: uninfected tumor cells express the IL-10R complex; endogenous in cells; host or cells: MDA-MB-231 human breast cancer cells
T1 sequence (Q13651 22-578): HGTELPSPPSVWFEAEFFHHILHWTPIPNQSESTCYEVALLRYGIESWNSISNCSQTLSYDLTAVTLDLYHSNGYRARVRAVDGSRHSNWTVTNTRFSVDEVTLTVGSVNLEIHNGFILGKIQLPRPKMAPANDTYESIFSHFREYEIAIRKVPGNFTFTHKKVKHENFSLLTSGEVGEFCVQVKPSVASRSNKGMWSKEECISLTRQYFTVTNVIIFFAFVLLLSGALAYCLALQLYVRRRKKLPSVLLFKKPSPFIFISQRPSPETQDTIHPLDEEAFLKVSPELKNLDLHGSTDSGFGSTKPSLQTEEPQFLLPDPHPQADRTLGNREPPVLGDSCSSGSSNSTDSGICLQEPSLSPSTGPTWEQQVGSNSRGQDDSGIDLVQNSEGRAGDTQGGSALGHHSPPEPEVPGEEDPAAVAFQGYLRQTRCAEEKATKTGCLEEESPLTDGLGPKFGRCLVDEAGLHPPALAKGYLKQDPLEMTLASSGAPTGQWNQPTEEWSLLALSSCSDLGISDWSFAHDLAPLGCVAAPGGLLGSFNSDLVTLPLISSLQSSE
T1 sequence (Q08334 20-325 partner): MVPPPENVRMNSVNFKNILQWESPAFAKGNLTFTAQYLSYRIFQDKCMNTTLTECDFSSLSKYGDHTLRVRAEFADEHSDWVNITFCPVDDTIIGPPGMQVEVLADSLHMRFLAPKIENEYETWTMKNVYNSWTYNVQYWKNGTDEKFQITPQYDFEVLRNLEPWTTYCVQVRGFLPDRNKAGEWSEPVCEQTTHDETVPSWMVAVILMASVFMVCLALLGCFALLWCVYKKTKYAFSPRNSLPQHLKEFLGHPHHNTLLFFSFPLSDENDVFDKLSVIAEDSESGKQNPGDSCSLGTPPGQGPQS
Procedure: MDA-MB-231 cells were seeded into 6-well dishes containing FBS-coated glass coverslips at a density of 2×10^5 cells per well and then incubated for 48 hrs at 37° C. Cell monolayers were washed with PBS, fixed with 4% paraformaldehyde, then permeabilized with 0.2% (w/v) Triton X-100 followed by treatment with ice cold 50% methanol-50% acetone for 30 min. Cells were then blocked with PBS+10% FBS for 1 hr at 37° C. and stained with anti-IL-10Rα antibody (Santa Cruz Biotechnology) at a 1:100 dilution for 1 hr at 37° C. Following three PBS washes, the coverslips were incubated with TRITC-conjugated secondary antibody for 1 hr, washed again, and then mounted on a glass slide using Prolong Gold anti-fade reagent with DAPI (Life Technologies, Grand Island, N.Y.). HFF cells were also grown on coverslips as described, mock- or virus-infected, and stained with anti-IE1 (EMD Millipore) followed by FITC-conjugated secondary antibody. Images were acquired using a Zeiss LSM700 laser scanning confocal microscope using Zen Black software (Carl Zeiss, Inc., Oberkochen, Germany).

HEK293 cells = assay: Transwell migration toward CXCL12; format: cell-based, human; settings: 0.1 μg/ml cmvIL-10 in lower chamber, 4 hours
Procedure: Transwell migration assays were performed by suspending cells at a density of 5×10^4 cells/ml in migration media (MEM or RPMI […] media plus 0.5% FBS). A total of 75 μl of cells was placed onto the upper chamber of a 96-well transwell system with 5.0 μm pores (Corning-Costar, Corning, N.Y.). The lower chamber contained 235 μl of migration media with CXCL12 plus or minus cmvIL-10 as indicated. Plates were incubated for four hours at 37° C., and then cells that traversed through the filter into the lower chamber were quantified via the addition of CellTitre-Glo reagent (Promega, Madison, Wis.) according to manufacturer's instructions.

B1: cmvIL-10 (protein)
chain: ATTTTIKNTKPQCRPEDYATRLQDLRVTFHRVKPTLQREDDYSVWLDGTVVKGCWGCSVMDWLLRRYLEIVFPAGDHVYPGLKTELHSMRSTLESIYKDMRQCPLLGCGDKSVISRLSQEAERKSDNGTRKGLSELDTLFSRLEEYLHSRK
MTSS1 protein (immunofluorescence) (MTSS1 [1]): dramatic reduction in the amount of MTSS1 protein
MTSS1 protein (82 kD band) (MTSS1 [2]): significant decrease in MTSS1 expression
IL-10R distribution after treatment (IL-10R): distinct redistribution of IL-10R
migration toward CXCL12 (HEK293 cells): significantly increased
